# The supplement of paper PMC10724198
# ± gives the standard deviation of the averaged measurements.
# Test system: Saccharomyces cerevisiae
# Assay: protein stability index of tFT-peptide fusion (C-terminal peptide) (PSI (0-1 scale)); higher = more stable (slower turnover)
# Conditions: genetic background: wild type; temperature: 30 C
# 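Also: PSI is a weighted mean of sequencing reads over stability bins, variants kept only with over 10 reads, mCherry proximal and sfGFP distal, peptide attached via GGGS linker.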
row,Sequence,protein stability index
1,GRRTNLCERLAL,0.722 ± 0.042
2,PCVPSRTISLPE,0.684 ± 0.031
3,SVFERDWTGGEV,0.7184 ± 0.00085
4,LLAFLPPPPCPP,0.709 ± 0.036
5,RLLGSGHCLLYI,0.613 ± 0.047
6,YYAFITERYRHN,0.6069 ± 0.0046
7,LGSGVQGEGRGW,0.678 ± 0.042
8,SSAGEVAFVAGT,0.689 ± 0.089
9,LKRSDFSFLEKV,0.701 ± 0.075
10,PAASHPPRWPRR,0.75 ± 0.049
11,MRSRWFAREFGK,0.659 ± 0.07
12,KIRFGRCLRSSF,0.746 ± 0.033
13,FSGFRFFLLWPW,0.678 ± 0.085
14,SSLRPSRPPPAS,0.6988 ± 0.0057
15,VVCVGSEVGEGG,0.7243 ± 0.0045
16,SKVLKSKSTGRG,0.75 ± 0.11
17,LIGKNNTSIQLK,0.742 ± 0.16
18,PPPLPPAPPSPP,0.703 ± 0.19
19,GLHSSNQLGALY,0.677 ± 0.036
20,APRRAPSRRIRL,0.748 ± 0.016
21,CSEDMVGSIVVV,0.651 ± 0.041
22,TFVVGTRVFSCD,0.631 ± 0.096
23,VDINYVIGRIRS,0.642 ± 0.0087
24,LPSLPPRTSPPS,0.761 ± 0.027
25,PHLEVPARPRGT,0.7148 ± 0.0042
26,SVYGIASRAQLL,0.64 ± 0.11

row,Sequence,protein stability index
1,RDRFSWGRRSDN,0.696 ± 0.041
2,NTQPSNRTQRKY,0.669 ± 0.1
3,LPPPYSHTPPPR,0.581 ± 0.031
4,PLPPPGPPRLSR,0.723 ± 0.0075
5,GFACRSGSFWST,0.848 ± 0.15
6,RGGVGLEGEGGE,0.615 ± 0.026
7,EWRDSCLLKWWV,0.725 ± 0.015
8,ARPASGCFCLFR,0.655 ± 0.071
9,KGETRLTSARLI,0.706 ± 0.028
10,KYRHDFNEVSKT,0.665 ± 0.036
11,GLLQRCGAWRGS,0.656 ± 0.04
12,FVQEQGAKNNRH,0.746 ± 0.015
13,PPSPPPPPKIPP,0.627 ± 0.055
14,PPPPRSPPLPRL,0.743 ± 0.061
15,VVRHWRRMTGDA,0.629 ± 0.12
16,APPPPPIPAPPP,0.714 ± 0.038
17,FLPPPPRRPFTR,0.6282 ± 0.0057
18,EPCIVCPMSRQG,0.773 ± 0.11
19,PVLPFPSPPAAS,0.682 ± 0.078
20,LLRPYYHILVPL,0.695 ± 0.0024
21,ARALCYSFPPAL,0.77 ± 0.1
22,PARPIPFPQPCY,0.538 ± 0.032
23,YYLPRPPRPTVL,0.623 ± 0.11
24,SQTRIKPREETA,0.653 ± 0.031
25,SVSRGSWVWGRL,0.723 ± 0.061
26,WASRSGPRVTLI,0.71 ± 0.018

row,Sequence,protein stability index
1,IRRRKRKRNQKP,0.708 ± 0.032
2,NSYVGSSTYVIV,0.692 ± 0.033
3,IACSVWYCCMVI,0.526 ± 0.014
4,GRSCAFCRVSRG,0.721 ± 0.083
5,FYMCYFSCSRSL,0.667 ± 0.0086
6,VTPVPFRTMMST,0.571
7,LCVWFGGLGLVG,0.69 ± 0.019
8,PLFSASLFSLSL,0.747 ± 0.068
9,CRGRSGMCNLET,0.751 ± 0.04
10,RRRREKWSVVHR,0.758 ± 0.0096
11,PLPPIPPSTPST,0.726 ± 0.017
12,PLPLPPPFILPT,0.646 ± 0.052
13,PGFTLLDFCLYH,0.725 ± 0.0091
14,IENNIITRGTRV,0.735 ± 0.027
15,RNRSNTQAKVIR,0.6725 ± 0.004
16,SSSVSYFLHYCI,0.606 ± 0.038
17,LMVGFRSFNVKC,0.618 ± 0.051
18,PNLKKHFRADEP,0.6832 ± 0.0036
19,GRVVGDGRSVGV,0.683 ± 0.01
20,CLSLLWRVLDLW,0.688 ± 0.065
21,LGRCRQTERETS,0.649 ± 0.089
22,SLPPPPAPPPAI,0.706 ± 0.086
23,VWGGWRRGRAWW,0.72411 ± 0.00051
24,RVNQRRATSEKT,0.677 ± 0.0082
25,SSSHRPTAPSSR,0.669 ± 0.05
26,HGCQGKVRQSHR,0.651 ± 0.039

row,Sequence,protein stability index
1,GAFRLGSIVGVP,0.735 ± 0.032
2,PPPSPFLPPRAP,0.709 ± 0.051
3,WPCVGWTLCSCS,0.541 ± 0.042
4,VVLRSTFFGSLL,0.699 ± 0.0089
5,CLRGLLVMLYQR,0.54 ± 0.01
6,GNGEGRKPPRPP,0.619 ± 0.014
7,PPSPPPPPPPTP,0.699 ± 0.043
8,GGFPVGLVSGFC,0.641 ± 0.032
9,TKLRHHKTQIVD,0.652 ± 0.059
10,PYTPPTSSRDRS,0.661 ± 0.019
11,KRIDLDCSVAAD,0.643 ± 0.022
12,PLLPLSFRIPPF,0.702 ± 0.014
13,FPDGLGSVPRSP,0.68389 ± 0.0004
14,VRKKGKKKKKDK,0.678 ± 0.031
15,SFGACSTSERIN,0.666 ± 0.07
16,KKIKKHEKKKNK,0.721 ± 0.053
17,EGKKKKKGNRPK,0.676 ± 0.081
18,VPLCSGKLAQIS,0.757 ± 0.0085
19,ASQSFSFITFTY,0.645 ± 0.056
20,DYRKGDVETPFV,0.677 ± 0.032
21,GIGVRLGFWCRG,0.75 ± 0.05
22,EYDIKRRKRRNT,0.67 ± 0.23
23,PIHCTVMGATTC,0.657 ± 0.073
24,PVYAYYVPCAPR,0.645 ± 0.091
25,TRYGVRVPGRFR,0.678 ± 0.018
26,TPPLRPLLYSNA,0.53 ± 0.059

row,Sequence,protein stability index
1,SSSPTPLPRSLP,0.671 ± 0.024
2,VTFRCHHSRQVM,0.725 ± 0.14
3,RGPPMPGRRGRA,0.7 ± 0.052
4,AQDECVMVWYVG,0.651 ± 0.013
5,SALTPCPPPYSH,0.668 ± 0.032
6,TTMNELPKSIKK,0.739 ± 0.042
7,SDGEHIYPESYR,0.695 ± 0.023
8,RRPTVLRHQSPI,0.737 ± 0.031
9,SLFSLLVLPPPS,0.706 ± 0.035
10,HIPPFSPCPPTG,0.707 ± 0.02
11,VPRFTPYRAIFP,0.591 ± 0.016
12,RFGLIFTSPHPL,0.63 ± 0.013
13,SFATSELRAGNN,0.701 ± 0.17
14,ENKTNKEKQQKQ,0.691 ± 0.012
15,KKKKKKKKDNKL,0.781 ± 0.099
16,LVLFSRCSPFFL,0.659 ± 0.024
17,PASSAPLSLLPC,0.655 ± 0.084
18,CCTPSFANVRDG,0.6998 ± 0.0027
19,SPPPHSARPPRP,0.686 ± 0.012
20,PLSQLPAFSPVS,0.687 ± 0.0095
21,FRDPPSILTSDT,0.621 ± 0.017
22,PPPRFCSLPDHL,0.636 ± 0.049
23,PYSHFVFGLCEL,0.75 ± 0.096
24,ATRRYQYSPHKV,0.651 ± 0.026
25,GGRVCGGRVEGQ,0.684 ± 0.007
26,CFPRVLFPVAAP,0.608 ± 0.049

row,Sequence,protein stability index
1,VVVGPVTKRGGH,0.68 ± 0.046
2,PPPRLPPPPPPP,0.679 ± 0.048
3,IYVGAGCLGHTE,0.717 ± 0.068
4,RKEQEDVHNKKK,0.671 ± 0.051
5,LSPCSDFSTFDA,0.771 ± 0.12
6,GKRHSYSIISSV,0.668 ± 0.061
7,KGGREARRERRD,0.672 ± 0.036
8,VGWRCWVGSVGL,0.6686 ± 0.0029
9,RGGRGLAAGAWW,0.7035 ± 0.0055
10,FGASSGSARVCG,0.682 ± 0.083
11,LPSLRFLFPLVP,0.671 ± 0.036
12,SPPSPSPSPRPL,0.669 ± 0.03
13,SFPRSHPPPFPP,0.674 ± 0.012
14,HPATPPPLLPPL,0.74479 ± 0.0007
15,LFRWLLRLVISH,0.608 ± 0.021
16,EGEVGGVVLPRI,0.696 ± 0.04
17,DPFYRNFARREA,0.738 ± 0.026
18,VGEVLCVGGAFY,0.659 ± 0.024
19,KWREQPRNDIVL,0.604 ± 0.047
20,PAPRPLSPPPTF,0.699 ± 0.0091
21,PPLPHQPSHPIS,0.672 ± 0.053
22,WGGVRRHGVGGS,0.648 ± 0.1
23,VGFISRIKSLYV,0.648 ± 0.0096
24,GVEVVVWRSGGI,0.688 ± 0.019
25,RKNHKKNHKTRI,0.65 ± 0.087
26,VTGSHARFSVPE,0.658 ± 0.013

row,Sequence,protein stability index
1,SAPLVSLHLSPL,0.68 ± 0.011
2,GGEGMTCPGGGA,0.693 ± 0.039
3,CLGVCAFSFCCN,0.624 ± 0.012
4,AGGRGNVGGVHV,0.679 ± 0.048
5,EGEGQGWGGQGG,0.6994 ± 0.0021
6,FGIGWNDRLVEC,0.669 ± 0.057
7,RSRRFPPTRPPL,0.73956 ± 0.00073
8,NVKIDNKQRKNK,0.746 ± 0.019
9,FSKTLCGCQITC,0.658 ± 0.037
10,RRPGGQGHPNAG,0.752 ± 0.023
11,YLADPSPSIPIL,0.649 ± 0.02
12,PPVWSSLPPPPF,0.721 ± 0.018
13,SYKAFVFSSDVW,0.77 ± 0.045
14,YPALCSRFFAPS,0.711 ± 0.039
15,TPTLPPPSPTFH,0.666 ± 0.021
16,GALYAGWRGPTC,0.669 ± 0.031
17,FSSPSFRSSLLL,0.679 ± 0.015
18,CRGRGGCPMSWR,0.689 ± 0.1
19,LSTPPLPPPPPP,0.689 ± 0.058
20,GLGLGLSGGAML,0.665 ± 0.069
21,PSLSYSRPPHPS,0.681 ± 0.027
22,PPPLRFLSFPPS,0.661 ± 0.057
23,ALCLDGCSLGEF,0.704 ± 0.017
24,SPSNPSLRLSSP,0.676 ± 0.023
25,SFPPTSPTHFPL,0.703 ± 0.031
26,GFSCLALFCRVD,0.587 ± 0.019

row,Sequence,protein stability index
1,VGRRDNHPTEKT,0.73 ± 0.025
2,GSVRSLARFCVF,0.499 ± 0.072
3,GVSRGTGIGEGE,0.6774 ± 0.0039
4,GVLLCVDGSGGE,0.762 ± 0.054
5,CSNKIILMTRNN,0.564 ± 0.041
6,LFPPPPPSPRCL,0.637 ± 0.055
7,AVPAPPPTLPPI,0.685 ± 0.051
8,RSRLSEAEEYGR,0.71 ± 0.0072
9,NIMSSFFLTFHR,0.719 ± 0.017
10,TFYLHSLLPTSF,0.6913 ± 0.0024
11,PDTCRYTAFHFH,0.586 ± 0.02
12,GLGGRGRRASEW,0.664 ± 0.071
13,LPSPTTPRSPPP,0.729 ± 0.1
14,CRMPLFGSYPLG,0.683 ± 0.022
15,LLRPLSPIDVLR,0.702 ± 0.069
16,SYFVIPGLSLSV,0.568 ± 0.056
17,SLRGIVFQSPSP,0.737 ± 0.025
18,YISLQKGVMNEL,0.728 ± 0.008
19,WGRARCAVGVSG,0.629 ± 0.0092
20,KKTPKKKHKKKR,0.679 ± 0.12
